The data set deals with cardiac troponin I (cTnI) (UniProt P19429 2-210). Kind of data set: FET aptasensor (IGZO/PCN-Au NPs), drain current change; 47% current change; response 0.01-1000 ng/mL, LOD 0.0066 ng/mL (no Kd); 10 mM PBS pH 7.4 (PBS tablets: 2.7 mM KCl, 137 mM NaCl), 10 min incubation, water wash; surface blocked with MCH and 0.10 mg/mL BSA; temperature not stated. As to conditions: protein: commercial.
Sequence of cardiac troponin I (cTnI) (P19429 2-210): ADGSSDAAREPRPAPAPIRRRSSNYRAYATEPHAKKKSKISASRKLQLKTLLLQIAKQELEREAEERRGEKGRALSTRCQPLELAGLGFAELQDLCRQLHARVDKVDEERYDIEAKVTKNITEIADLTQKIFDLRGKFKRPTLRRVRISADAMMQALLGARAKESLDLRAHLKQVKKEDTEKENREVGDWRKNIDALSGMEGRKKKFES

B1: Tro4 anti-cTnI DNA aptamer (ssDNA)
DNA: CGTGCAGTACGCCAACCTTTCTCATGCGCTGCCCCTTA
modifications: ThiC6 (thiol-C6) at 5' end, immobilised on Au NPs
For the molecule B1, the binding result was “binds”.

For the origin of these results see paper PMC9599297, “Graphitic Carbon Nitride and IGZO Bio-FET for Rapid Diagnosis of Myocardial Infarction”.
